The results in this text go back to PMC3173486.

The target of assay [1] is HA of A/swine/Netherlands/1/87 (H1N1) (influenza A virus A/swine/Netherlands/1/87 (H1N1)).
For assay [2], the target named is HA of human-derived H3N2 strains.
Assay [3] has as its target HA of the 2009 pandemic H1N1 strains, California/4/09 and Netherlands/602/09.
The target of assay [4] is HA of all influenza A/H1N1 viruses tested with RpSP-D multimers and trimers.

In assay [1], “RpSP-D trimers (from UniProt Q9N1X4 21-378) (natural protein)” yielded an HI assay: minimal inhibitory concentration of RpSP-D trimers; not inhibited greater than 1600 ng/100 µl.

B1: recombinant porcine SP-D, Q9N1X4 21-378 (natural protein)
chain: AEMKTYSQRAVANACALVMCSPMENGLPGRDGRDGREGPRGEKGDPGLPGAVGRAGMPGLAGPVGPKGDNGSTGEPGAKGDIGPCGPPGPPGIPGPAGKEGPSGQQGNIGPPGTPGPKGETGPKGEVGALGMQGSTGARGPAGLKGERGAPGERGAPGSAGAAGPAGATGPQGPSGARGPPGLKGDRGPPGERGAKGESGLPGITALRQQVETLQGQVQRLQKAFSQYKKVELFPNGRGVGEKIFKTGGFEKTFQDAQQVCTQAGGQMASPRSETENEALSQLVTAQNKAAFLSMTDIKTEGNFTYPTGEPLVYANWAPGEPNNNGGSSGAENCVEIFPNGKWNDKACGELRLVICEF
Regarding B1, the HI assay: minimal inhibitory concentration of RpSP-D with HA of swine H3N2 viruses worked out at 51 ng/100 µl; in assay [2] it was 11 ng/100 µl; in the assay with HA of avian H3N2 viruses, 14.6 ng/100 µl. Further, the HI assay: average inhibitory concentration of RpSP-D in assay [3] is 304 ng/100 µl.

B2: RpSP-D multimers (natural protein)
chain: AEMKTYSQRAVANACALVMCSPMENGLPGRDGRDGREGPRGEKGDPGLPGAVGRAGMPGLAGPVGPKGDNGSTGEPGAKGDIGPCGPPGPPGIPGPAGKEGPSGQQGNIGPPGTPGPKGETGPKGEVGALGMQGSTGARGPAGLKGERGAPGERGAPGSAGAAGPAGATGPQGPSGARGPPGLKGDRGPPGERGAKGESGLPGITALRQQVETLQGQVQRLQKAFSQYKKVELFPNGRGVGEKIFKTGGFEKTFQDAQQVCTQAGGQMASPRSETENEALSQLVTAQNKAAFLSMTDIKTEGNFTYPTGEPLVYANWAPGEPNNNGGSSGAENCVEIFPNGKWNDKACGELRLVICEF
Regarding B2, the HI assay: average minimal inhibitory concentration of RpSP-D multimers in assay [4] came to 39.8 ng/100 µl.

B3: RpSP-D trimers (natural protein)
chain: AEMKTYSQRAVANACALVMCSPMENGLPGRDGRDGREGPRGEKGDPGLPGAVGRAGMPGLAGPVGPKGDNGSTGEPGAKGDIGPCGPPGPPGIPGPAGKEGPSGQQGNIGPPGTPGPKGETGPKGEVGALGMQGSTGARGPAGLKGERGAPGERGAPGSAGAAGPAGATGPQGPSGARGPPGLKGDRGPPGERGAKGESGLPGITALRQQVETLQGQVQRLQKAFSQYKKVELFPNGRGVGEKIFKTGGFEKTFQDAQQVCTQAGGQMASPRSETENEALSQLVTAQNKAAFLSMTDIKTEGNFTYPTGEPLVYANWAPGEPNNNGGSSGAENCVEIFPNGKWNDKACGELRLVICEF
B3: the HI assay: average minimal inhibitory concentration of RpSP-D trimers in assay [4] turned out to be 602 ng/100 µl.

B4: recombinant human SP-D, P35247 21-375 (natural protein)
chain: AEMKTYSHRTMPSACTLVMCSSVESGLPGRDGRDGREGPRGEKGDPGLPGAAGQAGMPGQAGPVGPKGDNGSVGEPGPKGDTGPSGPPGPPGVPGPAGREGPLGKQGNIGPQGKPGPKGEAGPKGEVGAPGMQGSAGARGLAGPKGERGVPGERGVPGNTGAAGSAGAMGPQGSPGARGPPGLKGDKGIPGDKGAKGESGLPDVASLRQQVEALQGQVQHLQAAFSQYKKVELFPNGQSVGEKIFKTAGFVKPFTEAQLLCTQAGGQLASPRSAAENAALQQLVVAKNEAAFLSMTDSKTEGKFTYPTGESLVYSNWAPGEPNDDGGSEDCVEIFTNGKWNDRACGEKRLVVCEF
With B4, in the assay with HA of most H1N1 viruses, the HI assay: minimal inhibitory concentration of RhSP-D; failed to inhibit is greater than 7500 ng/100 µl.
